According to patent US20240216484A1 (URSAPHARM ARZNEIMITTEL, published 2024):

B1: HZI 2-05 (Anlec in TBS; lectin batch isolated from bromelain) (other)
chain: MSGLVKLGLWGGNEGTLQDIDGHPTRLTKIVIRSAHAIDALQFDYVEDGKTFAAGQWGGNGGKSDTIEFQPGEYLIAIKGTTGALGAVTNLVRSLTFISNMRTYGPFGLEHGTPFSVPVASGRIVAFYGRFGSLVDAFGIYLMPY
B2: Acm-JRL 2 (Anlec in TBS, Batch 2) (other)
chain: B1 chain
B3: HZI 2-10 (Anlec in TBS; lectin batch isolated from bromelain, protease inhibited with MMTS) (other)
chain: B1 chain
B4: HZI 2-06 (Anlec in dist. water; lectin batch isolated from bromelain) (other)
chain: B1 chain

Each binder was assayed against SARS-CoV-2 spike protein, extracellular domain (1-1213), recombinant from HEK293 cells (SARS-CoV-2, UniProt P0DTC2 14-1213).
In the case of B1, the koff is reported as 0.005 s⁻¹ and the kon is reported as 133 M⁻¹ s⁻¹. Binder B2 has a koff of 0.003 s⁻¹. In the case of B3, the koff is reported as 0.003 s⁻¹ and the kon is reported as 286 M⁻¹ s⁻¹. B4 showed a koff of 0.008 s⁻¹ and a kon of 359 M⁻¹ s⁻¹.
